Measurements published in patent US20060073508A1 (published 2006).

Target: GRK2 (βARK1)
Assay: cell-based or functional assay

B1: hemagglutinin epitope-tagged Del301-303 human alpha-2B adrenergic receptor (receptor)
chain: YPYDVPDYAMDHQDPYSVQATAAIAAAITFLILFTIFGNALVILAVLTSRSLRAPQNLFLVSLAAADILVATLIIPFSLANELLGYWYFRRTWCEVYLALDVLFCTSSIVHLCAISLDRYWAVSRALEYNSKRTPRRIKCIILTVWLIAAVISLPPLIYKGDQGPQPRGRPQCKLNQEAWYILASSIGSFFAPCLIMILVYLRIYLIAKRSNRRGPRAKGGPGQGESKQPRPDHGGALASAKLPALASVASAREVNGHSKSTGEKEEGETPEDTGTRALPPSWAALPNSGQGQKEGVCGASPEDEAEEEEEEEEECEPQAVPVSPASACSPPLQQPQGSRVLATLRGQVLLGRGVGAIGGQWWRRRAQLTREKRFTFVLAVVIGVFVLCWFPFFFSYSLGAICPKHCKVPHGLFQFFFWIGYCNSSLNPVIYTIFNQDFRRAFRRILCRPWTQTAW
B1 was tested, and the “agonist-promoted whole cell phosphorylation of the receptor (10 µM norepinephrine)” value was 3.28 fold increase.
